Results reported in the supplement of paper PMC10126150.
± gives the standard deviation of the averaged measurements.

system: ATP; experiment: switch fluorescence ratio, 500 uM ATP over buffer (Cy3 cluster intensity, sum of 5 cycles each) (fold (ratio)); higher = stronger signal-on switching upon ATP binding; sequences stand for … in TCGTCGGCAGCGTCAGATGTGTATAAGAGACAGTTTTTTTTTTTTTTTTTTTTTTTTT…TC; details: aptamer strand: ATP DNA aptamer (quencher-CACCTGGGGGAGTATTGCGGAGGAAGG + anchor), 100 nM annealed; ATP concentration: 500 uM
How it was run: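 Between each of five buffer/ATP cycles, the flow-cell was stripped with NaOH and re-annealed. Each cycle imaged Cy3-labelled switching-strand clusters, annealed to 100 nM quencher-labelled ATP aptamer on a modified Illumina MiSeq flow-cell, first in selection buffer and then after 15 min with 500 uM ATP at 22 °C. The fluorescence ratio is summed target-cycle over summed buffer-cycle Cy3 intensity per cluster, averaged per switch-domain sequence, with clusters outside 100-1000 RFU excluded.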
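Also: ATP exposure 15 min at 22 °C before imaging.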

| Sequence | switch fluorescence ratio |
| --- | --- |
| ACCAGCTTTT | 1.04 ± 0.03 |
| ACCAGGTGTG | 3.53 ± 0.34 |
| ACCAGTAGGT | 1.01 ± 0.035 |
| ACCATACTGT | 1.33 ± 0.055 |
| ACCATATTTG | 1.04 ± 0.058 |
| ACCATATTTT | 1.073 ± 0.0094 |
| ACCATCCGGC | 1.12 ± 0.012 |
| ACCATTACAC | 1.24 ± 0.024 |
| ACCATTAGCA | 0.998 ± 0.022 |
| ACCCAAGATT | 1.01 ± 0.017 |
| ACCCAGAAGG | 1.08 ± 0.043 |
| ACCCATCTGT | 0.979 ± 0.013 |
| ACCCATGCGA | 1.13 ± 0.036 |
| ACCCATTGTA | 1.064 ± 0.0071 |
| ACCCCATGCG | 1.22 ± 0.037 |
| ACCCCGGTAA | 1.87 ± 1.2 |
| ACCCGGGGCA | 1.05 ± 0.054 |
| ACCCGTACAT | 1.11 ± 0.022 |
| ACCCGTTTTG | 1.01 ± 0.025 |
| ACCCTGGACA | 1.01 ± 0.019 |
| ACCGAGCAAG | 4.12 ± 0.19 |
| ACCGAGGCAT | 3.81 ± 1.5 |
| ACCGAGGGGG | 1.02 ± 0.041 |
| ACCGCGGGCG | 1.069 ± 0.0053 |
| ACCGCTTACG | 1.56 ± 0.12 |

| Sequence | switch fluorescence ratio |
| --- | --- |
| ACCGGCGAGG | 1.01 ± 0.036 |
| ACCGGGGCTC | 1.05 ± 0.052 |
| ACCGGGGGAG | 0.984 ± 0.02 |
| ACCGGGGTGT | 1.17 ± 0.14 |
| ACCGGGTTGG | 0.999 ± 0.01 |
| ACCGGTCTAT | 1.031 ± 0.00046 |
| ACCGGTGCTT | 1.04 ± 0.032 |
| ACCGGTTACA | 1.03 ± 0.042 |
| ACCGGTTTTT | 1.04 ± 0.045 |
| ACCGTAGCTT | 2.61 ± 0.14 |
| ACCGTCAGGT | 1 ± 0.085 |
| ACCTACAAGG | 0.99429 ± 0.00094 |
| ACCTAGCGAT | 1.57 ± 0.03 |
| ACCTCATTTG | 1.067 ± 0.0049 |
| ACCTCGTTTT | 0.9879 ± 0.0062 |
| ACCTGATATA | 1.03 ± 0.021 |
| ACCTGATCGT | 1.087 ± 0.0051 |
| ACCTGATTAT | 1.02 ± 0.02 |
| ACCTGCAATG | 2.43 ± 0.2 |
| ACCTGCATGG | 1.05 ± 0.11 |
| ACCTGCTAAC | 1.59 ± 0.024 |
| ACCTGGACCT | 1.33 ± 0.032 |
| ACCTGGATAC | 1.86 ± 0.019 |
| ACCTGGGCGC | 1.2 ± 0.12 |
| ACCTGTATTT | 1 ± 0.02 |

| Sequence | switch fluorescence ratio |
| --- | --- |
| ACCTGTGAGT | 0.9909 ± 0.0019 |
| ACCTTCTTTT | 1.11 ± 0.11 |
| ACCTTGAGAG | 1 ± 0.011 |
| ACCTTGGTGT | 1.01 ± 0.053 |
| ACCTTTTTTG | 0.992 ± 0.024 |
| ACGAAAACGC | 1.36 ± 0.23 |
| ACGAAAGTCT | 1.03 ± 0.041 |
| ACGAACGGTA | 1.37 ± 0.032 |
| ACGAAGAGTT | 1.05 ± 0.019 |
| ACGAATGCGT | 0.975 ± 0.047 |
| ACGACTGGGG | 1.02 ± 0.03 |
| ACGACTTGGT | 1.09 ± 0.11 |
| ACGACTTTGT | 1.02 ± 0.032 |
| ACGAGAGAAA | 0.974 ± 0.017 |
| ACGAGCTGCT | 1.032 ± 0.0038 |
| ACGAGTAGCT | 1.01 ± 0.014 |
| ACGAGTCTGG | 1.08 ± 0.039 |
| ACGAGTGTTG | 1.03 ± 0.037 |
| ACGAGTTCAT | 0.999 ± 0.017 |
| ACGAGTTCCT | 0.989 ± 0.056 |
| ACGATAGGGC | 1.06 ± 0.046 |
| ACGATGTATC | 1.06 ± 0.049 |
| ACGATTGGTG | 1.07 ± 0.056 |
| ACGCAACGCC | 1.6634 ± 0.0003 |
| ACGCCTACGA | 1.15 ± 0.09 |

| Sequence | switch fluorescence ratio |
| --- | --- |
| ACGCGCGCGC | 0.987 ± 0.036 |
| ACGCGGCAGG | 1.02 ± 0.022 |
| ACGCGGCGGG | 0.977 ± 0.036 |
| ACGCTAATGT | 1.35 ± 0.23 |
| ACGCTAGGGC | 1.16 ± 0.039 |
| ACGCTGGGGA | 0.993 ± 0.016 |
| ACGGAAACGC | 1.1 ± 0.02 |
| ACGGAAGTTA | 1.02 ± 0.025 |
| ACGGACCATT | 1.27 ± 0.014 |
| ACGGAGACCG | 1.01 ± 0.038 |
| ACGGAGCCTT | 1.32 ± 0.036 |
| ACGGAGGGGT | 1.14 ± 0.13 |
| ACGGAGGGTG | 1.029 ± 0.0088 |
| ACGGATTTGG | 0.9926 ± 0.0095 |
| ACGGCAACAT | 1.31 ± 0.1 |
| ACGGCAAGGA | 1.12 ± 0.028 |
| ACGGCAGTGA | 1.0394 ± 0.00012 |
| ACGGCCGGTC | 0.9773 ± 0.0026 |
| ACGGCGGTGC | 1.034 ± 0.0078 |
| ACGGCTGAGC | 1.04 ± 0.03 |
| ACGGCTGTTA | 1.012 ± 0.0046 |
| ACGGGAAAAG | 1.01 ± 0.035 |
| ACGGGAATTG | 1.04 ± 0.019 |
| ACGGGACGGG | 1.02 ± 0.035 |
| ACGGGCAATG | 1.32 ± 0.16 |
